The results in this text go back to FireProtDB (doi:10.1002/prot.340080106).

First the molecules themselves.
B1: Protein S100-G, P02633 (parent)
chain: MSAKKSPEELKGIFEKYAAKEGDPNQLSKEELKLLLQTEFPSLLKGPSTLDELFEELDKNGDGEVSFEEFQVLVKKISQ

The data set covers variants of B1. To be noted: Bos taurus; pH 7; 25 °C; Urea; CD; PIPES-KOH 20 mM; reversible: yes; structure 1IGV; whole UniProt chain shown.

As to E21Q D23N, the “ddG of mutation (higher = less stable)” value is -1.19 kcal/mol, the “denaturant midpoint (higher = more stable)” value (shortened to “denaturant midpoint”) turned out to be 6.2 M and the unfolding free energy was determined as 1.48 kcal/mol.

E21Q: the “ddG of mutation (higher = less stable)” value is -0.38 kcal/mol, the “denaturant midpoint” value was determined as 5.6 M and the unfolding free energy is 0.67 kcal/mol.

As to D23N E30Q, the “ddG of mutation (higher = less stable)” value is -0.52 kcal/mol, the “denaturant midpoint” value was determined as 5.8 M and the unfolding free energy was 0.81 kcal/mol.

As to E21Q D23N E30Q, the “ddG of mutation (higher = less stable)” value was -0.93 kcal/mol, the “denaturant midpoint” value amounted to 6.1 M and the unfolding free energy is 1.22 kcal/mol.
